Data on 3 molecules can be found in patent US20260137799A1, “ANTI-MUC1* ANTIBODY DRUG COMPLEXES AND USES THEREOF” (Minerva Biotechnologies Corporation, priority 2023, published 2026).

Numbering of substitutions follows the chain as printed. A value given as a limit tells only on which side of the number the result lay.

For one assay, the target named is MUC1*45 (UniProt P15941 1110-1255). Nature of the assay: cell-based or functional assay.
In assay [1] the test system is H2110-wt lung cancer cell line. Nature of the assay: xCELLigence impedance cytotoxicity, H2110. It is filed as cell-based, human. The conditions noted are these: Example 9 (FIGS. 35-36); read-out: IC50, lung cancer H2110-wt cells. How it is done:
(§1) An xCELLigence RTCA MP Instrument (Agilent) was used to assess real-time killing of target cancer cells). In the xCELLigence system, target cancer cells, which are adherent, are plated onto electrode array 96-well plates. Adherent cells insulate the electrode and increase the impedance. The number of adherent cancer cells is directly proportional to impedance. […] Therefore, increasing impedance reflects the growth of the cancer cells and decreasing impedance reflects the killing of the cancer cells.
(§2) Target Cancer cells (Table 9) were seeded onto a multi-electrode well plate at a density of 5000 cells/well (100 μL of a 50,000 cells/mL stock) and incubated for 24 hr in a 37° C./5% CO2 incubator. ADCs were prepared as a 2× solution in corresponding growth media and 100 μL of each concentration was added to target cells. As a positive control (100% cell killing) cells were treated with either 1% triton or 1 μM Taxol instead of ADC. After 40-120 hours incubation in a 37° C./5% CO2 incubator cell killing was assessed. In this assay, impedance is measured in real-time. When the adherent cancer cells are killed and come off the electrode surface, impedance (insulation) decreases.
(§3) To directly compare the C2 and 3C2B1 anti-MUC1* antibodies as ADC targeting domains, a panel of MUC1* positive cancer cell lines representing different cancer types were treated with C2-deruxtecan versus 3C2B1-deruxtecan (FIG. 35) or C2-MC-VA-PAB-exatecan versus 3C2B1-MC-VA-PAB-exatecan (FIG. 36). In some cases, the cancer cells were engineered to express high levels of MUC1*45.

The test system of another assay is HPAF-II MUC1*. Description: xCELLigence impedance cytotoxicity, HPAF-II MUC1*. The class given is cell-based, human. As to conditions: Example 9 (FIG. 35); average; read-out: IC50, HPAFII cells engineered to express MUC1*45. How it is done:
as §1, §2

The test system of the next assay is T47D. Description: xCELLigence impedance cytotoxicity, T47D. It is filed as cell-based, human. As to conditions: Example 9 (FIGS. 35-36); average over batches for DXd ADCs; read-out: IC50 for killing of breast cancer T47D-wt cells. How it is done: as §1, §2
Another assay concerns H1975-MUC1*45 cells. Description: Antibody internalization (pHrodo Deep Red), H1975-MUC1*45. It is filed as cell-based, human. The conditions noted are these: H1975-MUC1*45 vs H1975-wt. How it is done: (§4) Antibodies C2 and 3C2B1 were tested for their ability to be internalized by H1975 lung cancer cells (H1975-wt) and H1975 cells that were engineered to express high levels of a recombinant MUC1* polypeptide with a 45 amino acid extracellular domain (H1975-MUC1*45). In contrast to the T47D breast cancer cells, H1975-wt cells internalized 3C2B1 faster than they internalized C2 (FIGS. 4A1-4A28, 4C1-4C28 and 4E). Two (2) hours post incubation with H1975-wt cells, […] the cells had internalized C2. […] Similar to the T47D cells, MUC1*45 expression increased the internalization rate of C2 and decreased the internalization rate of 3C2B1 (FIGS. 4B1-4B28, 4D1-4D28 and 4E).
(§5) Antibodies C2 and 3C2B1 were coupled to a pH sensitive fluorophore using the pHrodo Deep Red TFP Ester kit (Thermo cat #P35356), according to manufacturer instructions. Cancer cells were seeded at ˜50,000 cells/well onto μ-Slide 8-well tissue culture-treated, chambered coverslip wells (Ibidi 80806) in their recommended media with 10% FBS. Cells were cultured for 48 hours. Slides were transferred into microscope chamber (37° C.—5% CO2) and equilibrated for ˜30 minutes. The pHrodo Deep Red coupled antibody was then diluted to a concentration of 200 to 300 μg/mL into pre-warmed media supplemented with 10% FBS. Media was removed from the chamber slides and the diluted antibodies were separately added. Fluorescent (655 nm) and phase contrast images at were collected every 10 min for 12h or 16 h with a Leica Thunder Live Cell 3D microscope.
(§6) Internalization of the fluorescently labeled antibodies was quantified as follows. Images were imported into ImageJ. The selection tool was used to draw a region of interest (ROI) on the image. The integrated pixel density (mean gray-scale value×area) was then measured by the ImageJ software. Positively-stained cells were manually counted and the integrated pixel density was divided by the number of positive cells to yield “Pixel Intensity per positive cell”.

In assay [2] the test system is H1975 lung cancer cells (H1975-wt). Description: Antibody internalization (pHrodo Deep Red), H1975-wt. The conditions noted are these: H1975 cells. It is filed as cell-based, human. How it is done: as §4, §5, §6
Assay [3] concerns CFPAC1-wt pancreatic cancer cell line. Nature of the assay: xCELLigence impedance cytotoxicity, CFPAC1. The conditions noted are these: Example 9 (FIGS. 35-36); read-out: IC50, CFPAC1-wt pancreatic cancer cells. The class given is cell-based, human. How it is done:
as §1, §2, §3

Another assay concerns HPAF-II. Nature of the assay: xCELLigence impedance cytotoxicity, HPAF-II. The class given is cell-based, human. As to conditions: Example 9 (FIG. 35); average; listed as 3C2B1-MC-GGFG-AM-DXd; read-out: IC50 for killing of HPAFII-wt pancreatic cancer cells. How it is done: as §1, §2
The subject of assay [4] is MUC1 after cleavage by MMP9. Nature of the assay: Binding to MUC1-expressing cells after MMP9 cleavage. The class given is cell-based. How it is done:
The binding strength of anti-MUC1* antibodies is evaluated by determining their ability to displace NMF7-AB (a MUC1* ligand) from MUC1* immobilized on the plastic surface of a 96-well plate. Because the cancer-selective MUC1* epitope is a conformational epitope, cancer-selective anti-MUC1* antibodies should not recognize MUC1* on a western blot, where the epitope is linearized. MMP9 is a protease that cleaves MUC1 to generate MUC1*. MMP9 is a predictor of poor prognosis for breast cancers. Some cancer-selective anti-MUC1* antibodies, particularly breast cancer selective antibodies, should bind to cells engineered to express MUC1 after they are contacted with MMP9 to convert the MUC1 to MUC1*.

In assay [5] the target is PSMGFR C-10 peptide (SEQ ID NO: 3) (Homo sapiens, UniProt P15941). Nature of the assay: ELISA binding to PSMGFR C-10 peptide. As to conditions: ELISA. The text has this:
Cancer selective anti-MUC1* antibodies bind to a membrane proximal conformational epitope within the MUC1* extracellular domain, as described in WO 2020/146902.
The 3C2B1 epitope was mapped more precisely with additional PSMGFR peptide variants (FIGS. 2A, 2B).
(An ELISA detects its analyte on a solid surface through an enzyme-linked reagent.)

Chain of MUC1 after cleavage by MMP9 (P15941 1120-1255 limits assumed): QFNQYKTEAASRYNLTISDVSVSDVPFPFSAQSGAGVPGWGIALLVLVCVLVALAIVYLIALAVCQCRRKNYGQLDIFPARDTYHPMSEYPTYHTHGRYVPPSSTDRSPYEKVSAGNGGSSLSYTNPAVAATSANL
Chain of PSMGFR C-10 peptide (SEQ ID NO: 3) (P15941 1110-1144 limits assumed): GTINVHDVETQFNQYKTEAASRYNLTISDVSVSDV

B1: 3C2B1-deruxtecan (antibody, V domains shown)
VH: EVMLVESGGGLVKPGGSLKLSCAASGITFSTYTMSWVRQTPEKRLEWVATISTGGDKTYYSDSVKGRFTISRDNAKNNLYLQMSSLRSEDTALYYCARGTTAMYYYAMDYWGQGTSVTVSS
VL: DIVLTQSPASLAVSLGQRATISCRASKSISTSDYNYIHWYQQKPGQPPKLLIYLASNLESGVPARFSGSGSGTDFTLNIHPVEEEDAATYYCQHSRELPLTFGAGTKLELK
modifications: deruxtecan (MC-GGFG-AM-DXd) on reduced cysteine thiols of the antibody, sites not stated; deruxtecan (MC-GGFG-AM-DXd) on reduced cysteine thiols of the antibody, sites not stated; average DAR 9.2
With B1, the “IC50, killing of H1975 lung cancer cells engineered to express MUC1*45 (xCELLigence)” value in the assay with MUC1*45 was 343 nM. Besides, the “IC50, killing of T47D breast cancer cells engineered to express more MUC1*45 (xCELLigence)” value with MUC1*45 was found to be 48 nM. Moreover, the IC50 (usually the concentration at which inhibition is half-maximal) was 90 nM in assay [1]; 160 nM with HPAF-II MUC1*; 61 nM with T47D; 34 nM in [3]; above 303 nM with HPAF-II. The “effect of MUC1*45 expression on internalization rate” value with H1975-MUC1*45 cells is “inhibited”. Besides, in [2], the “internalization rate of the ADC compared to antibody alone” value was “about the same rate as the 3C2B1 antibody alone”.

B2: 18G12: anti-MUC1* monoclonal antibody that bound to the PSMGFR peptide (antibody, V domains shown)
VH: QVQLVQSGAEVKKPGASVKVSCKASGYTFTGYFLYWVRQAPGQGLEWIGGINPDNGGIDFNEKFRNRATLTVDKSSSTAYMELSSLRSEDTAVYYCTLLIGNYWGQGTLVTVSS
VL: DVVMTQTPSSLSVTPGQPASISCKSSQSLLHSDGKTYLIWLQQKPGQSPQRLIYLVSKLDSGVPDRFSGSGSGTDFTLKISRVEAEDVGVYYCCQGTHFPWTFGQGTKVEIK
In the case of B2, the “Recognizes MUC1 after cleavage by MMP9” value in assay [4] is 0. In [5], the “Does not bind C-10” value was 0.

B3: 28F9: anti-MUC1* monoclonal antibody that bound to the PSMGFR peptide (antibody, V domains shown)
VH: B2 VH with N52H, D54S, G57D, I58T, R65K, K74I, E89D, T97A, L98R, N102V
VL: B2 VL with T7S, S9L, P15L, K44R, Q50R, Y92F
modifications: humanized form
B3: in assay [4], the “Recognizes MUC1 after cleavage by MMP9” value is recorded as 0. For the same molecule, the “Does not bind C-10” value in assay [5] came out at 0.
